± gives the uncertainty stated by the source.
Test system: HEK293T
Test: plasma membrane surface immunostaining intensity (anti-HA, deep receptor scanning) (arbitrary fluorescence units); higher = higher plasma membrane expression

Sequence | plasma membrane surface immunostaining intensity (GPCR class: A) | plasma membrane surface immunostaining intensity (GPCR class: A (Olfactory)) | further results
MDRRMWGAHVFCVLSPLPTVLGHMHPECDFITQLREDESACLQAAEEMPNTTLGCPATWDGLLCWPTAGSGEWVTLPCPDFFSHFSSESGAVKRDCTITGWSEPFPPYPVACPVPLELLAEEESYFSTVKIIYTVGHSISIVALFVAITILVALRRLHCPRNYVHTQLFTTFILKAGAVFLKDAALFHSDDTDHCSFSTVLCKVSVAASHFATMTNFSWLLAEAVYLNCLLASTSPSSRRAFWWLVLAGWGLPVLFTGTWVSCKLAFEDIACWDLDDTSPYWWIIKGPIVLSVGVNFGLFLNIIRILVRKLEPAQGSLHTQSQYWRLSKSTLFLIPLFGIHYIIFNFLPDNAGLGIRLPLELGLGSFQGFIVAILYCFLNQEVRTEISRKWHGHDPELLPAWRTRAKWTTPSRSAAKVLTSMC [GHRHR] |  |  | plasma membrane surface immunostaining intensity (GPCR class: B): 108 ± 5.4
MPSPPGLRALWLCAALCASRRAGGAPQPGPGPTACPAPCHCQEDGIMLSADCSELGLSAVPGDLDPLTAYLDLSMNNLTELQPGLFHHLRFLEELRLSGNHLSHIPGQAFSGLYSLKILMLQNNQLGGIPAEALWELPSLQSLRLDANLISLVPERSFEGLSSLRHLWLDDNALTEIPVRALNNLPALQAMTLALNRISHIPDYAFQNLTSLVVLHLHNNRIQHLGTHSFEGLHNLETLDLNYNKLQEFPVAIRTLGRLQELGFHNNNIKAIPEKAFMGNPLLQTIHFYDNPIQFVGRSAFQYLPKLHTLSLNGAMDIQEFPDLKGTTSLEILTLTRAGIRLLPSGMCQQLPRLRVLELSHNQIEELPSLHRCQKLEEIGLQHNRIWEIGADTFSQLSSLQALDLSWNAIRSIHPEAFSTLHSLVKLDLTDNQLTTLPLAGLGGLMHLKLKGNLALSQAFSKDSFPKLRILEVPYAYQCCPYGMCASFFKASGQWEAEDLHLDDEESSKRPLGLLARQAENHYDQDLDELQLEMEDSKPHPSVQCSPTPGPFKPCEYLFESWGIRLAVWAIVLLSVLCNGLVLLTVFAGGPVPLPPVKFVVGAIAGANTLTGISCGLLASVDALTFGQFSEYGARWETGLGCRATGFLAVLGSEASVLLLTLAAVQCSVSVSCVRAYGKSPSLGSVRAGVLGCLALAGLAAALPLASVGEYGASPLCLPYAPPEGQPAALGFTVALVMMNSFCFLVVAGAYIKLYCDLPRGDFEAVWDCAMVRHVAWLIFADGLLYCPVAFLSFASMLGLFPVTPEAVKSVLLVVLPLPACLNPLLYLLFNPHFRDDLRRLRPRAGDSGPLAYAAAGELEKSSCDSTQALVAFSDVDLILEASEAGRPPGLETYGFPSVTLISCQQPGAPRLEGSHCVEPEGNHFGNPQPSMDGELLLRAEGSTPAGGGLSGGGGFQPSGLAFASHV [LGR6] | 479 ± 50 |  | 
MQRPGPRLWLVLQVMGSCAAISSMDMERPGDGKCQPIEIPMCKDIGYNMTRMPNLMGHENQREAAIQLHEFAPLVEYGCHGHLRFFLCSLYAPMCTEQVSTPIPACRVMCEQARLKCSPIMEQFNFKWPDSLDCRKLPNKNDPNYLCMEAPNNGSDEPTRGSGLFPPLFRPQRPHSAQEHPLKDGGPGRGGCDNPGKFHHVEKSASCAPLCTPGVDVYWSREDKRFAVVWLAIWAVLCFFSSAFTVLTFLIDPARFRYPERPIIFLSMCYCVYSVGYLIRLFAGAESIACDRDSGQLYVIQEGLESTGCTLVFLVLYYFGMASSLWWVVLTLTWFLAAGKKWGHEAIEANSSYFHLAAWAIPAVKTILILVMRRVAGDELTGVCYVGSMDVNALTGFVLIPLACYLVIGTSFILSGFVALFHIRRVMKTGGENTDKLEKLMVRIGLFSVLYTVPATCVIACYFYERLNMDYWKILAAQHKCKMNNQTKTLDCLMAASIPAVEIFMVKIFMLLVVGITSGMWIWTSKTLQSWQQVCSRRLKKKSRRKPASVITSGGIYKKAQHPQKTHHGKYEIPAQSPTCV [FZD10] |  |  | plasma membrane surface immunostaining intensity (GPCR class: F): 2420 ± 580
MEETNNSSEKGFLLLGFSDQPQLERFLFAIILYFYVLSLLGNTALILVCCLDSRLHTPMYFFLSNLSCVDICFTTSVAPQLLVTMNKKDKTMSYGGCVAQLYVAMGLGSSECILLAVMAYDRYAAVCRPLRYIAIMHPRFCASLAGGAWLSGLITSLIQCSLTVQLPLCGHRTLDHIFCEVPVLIKLACVDTTFNEAELFVASVVFLIVPVLLILVSYGFITQAVLRIKSAAGRQKAFGTCSSHLVVVIIFYGTIIFMYLQPANRRSKNQGKFVSLFYTIVTPLLNPIIYTLRNKDVKGALRTLILGSAAGQSHKD [OR2G6] |  | 122 ± 18 | 
MLGIMAWNATCKNWLAAEAALEKYYLSIFYGIEFVVGVLGNTIVVYGYIFSLKNWNSSNIYLFNLSVSDLAFLCTLPMLIRSYANGNWIYGDVLCISNRYVLHANLYTSILFLTFISIDRYLIIKYPFREHLLQKKEFAILISLAIWVLVTLELLPILPLINPVITDNGTTCNDFASSGDPNYNLIYSMCLTLLGFLIPLFVMCFFYYKIALFLKQRNRQVATALPLEKPLNLVIMAVVIFSVLFTPYHVMRNVRIASRLGSWKQYQCTQVVINSFYIVTRPLAFLNSVINPVFYFLLGDHFRDMLMNQLRHNFKSLTSFSRWAHELLLSFREK [SUCNR1] | 528 ± 61 |  | 
MDLELDEYYNKTLATENNTAATRNSDFPVWDDYKSSVDDLQYFLIGLYTFVSLLGFMGNLLILMALMKKRNQKTTVNFLIGNLAFSDILVVLFCSPFTLTSVLLDQWMFGKVMCHIMPFLQCVSVLVSTLILISIAIVRYHMIKHPISNNLTANHGYFLIATVWTLGFAICSPLPVFHSLVELQETFGSALLSSRYLCVESWPSDSYRIAFTISLLLVQYILPLVCLTVSHTSVCRSISCGLSNKENRLEENEMINLTLHPSKKSGPQVKLSGSHKWSYSFIKKHRRRYSKKTACVLPAPERPSQENHSRILPENFGSVRSQLSSSSKFIPGVPTCFEIKPEENSDVHELRVKRSVTRIKKRSRSVFYRLTILILVFAVSWMPLHLFHVVTDFNDNLISNRHFKLVYCICHLLGMMSCCLNPILYGFLNNGIKADLVSLIHCLHM [NPY5R] | 269 ± 26 |  | 
MELWNFTLGSGFILVGILNDSGSPELLCATITILYLLALISNGLLLLAITMEARLHMPMYLLLGQLSLMDLLFTSVVTPKALADFLRRENTISFGGCALQMFLALTMGGAEDLLLAFMAYDRYVAICHPLTYMTLMSSRACWLMVATSWILASLSALIYTVYTMHYPFCRAQEIRHLLCEIPHLLKVACADTSRYELMVYVMGVTFLIPSLAAILASYTQILLTVLHMPSNEGRKKALVTCSSHLTVVGMFYGAATFMYVLPSSFHSTRQDNIISVFYTIVTPALNPLIYSLRNKEVMRALRRVLGKYMLPAHSTL [OR2AG1] |  | 135 ± 23 | 
MFLYLCFIFQRTCSEEMEEENATLLTEFVLTGFLHQPDCKIPLFLAFLVIYLITIMGNLGLIVLIWKDPHLHIPMYLFLGSLAFVDASLSSTVTPKMLINFLAKSKMISLSECMVQFFSLVTTVTTECFLLATMAYDRYVAICKALLYPVIMTNELCIQLLVLSFIGGLLHALIHEAFSFRLTFCNSNIIQHFYCDIIPLLKISCTDSSINFLMVFIFAGSVQVFTIGTILISYTIILFTILEKKSIKGIRKAVSTCGAHLLSVSLYYGPLTFKYLGSASPQADDQDMMESLFYTVIVPLLNPMIYSLRNKQVIASFTKMFKSNV [OR5H6] |  | 123 ± 24 | 
MRTLLPPALLTCWLLAPVNSIHPECRFHLEIQEEETKCAELLRSQTEKHKACSGVWDNITCWRPANVGETVTVPCPKVFSNFYSKAGNISKNCTSDGWSETFPDFVDACGYSDPEDESKITFYILVKAIYTLGYSVSLMSLATGSIILCLFRKLHCTRNYIHLNLFLSFILRAISVLVKDDVLYSSSGTLHCPDQPSSWVGCKLSLVFLQYCIMANFFWLLVEGLYLHTLLVAMLPPRRCFLAYLLIGWGLPTVCIGAWTAARLYLEDTGCWDTNDHSVPWWVIRIPILISIIVNFVLFISIIRILLQKLTSPDVGGNDQSQYKRLAKSTLLLIPLFGVHYMVFAVFPISISSKYQILFELCLGSFQGLVVAVLYCFLNSEVQCELKRKWRSRCPTPSASRDYRVCGSSFSRNGSEGALQFHRGSRAQSFLQTETSVI [VIPR2] |  |  | plasma membrane surface immunostaining intensity (GPCR class: B): 6470 ± 74
MERGNQTEVGNFLLLGFAEDSDMQLLLHGLFLSMYLVTIIGNLLIILTISSDSHLHTPMYFFLSNLSFADICFTSTTVPKMLVNIQTQSKMITFAGCLTQIFFFIAFGCLDNLLLTMTAYDRFVAICYPLHYTVIMNPRLCGLLVLGSWCISVMGSLLETLTILRLSFCTNMEIPHFFCDPSEVLKLACSDTFINNIVMYFVTIVLGVFPLCGILFSYSQIFSSVLRVSARGQHKAFSTCGSHLSVVSLFYGTGLGVYLSSAVTPPSRTSLAASVMYTMVTPMLNPFIYSLRNKDMKGSLGRLLLRATSLKEGTIAKLS [OR7C2] |  | 131 ± 26 | 
MLESHLIIYFLLAVIQFLLGIFTNGIIVVVNGIDLIKHRKMAPLDLLLSCLAVSRIFLQLFIFYVNVIVIFFIEFIMCSANCAILLFINELELWLATWLGVFYCAKVASVRHPLFIWLKMRISKLVPWMILGSLLYVSMICVFHSKYAGFMVPYFLRKFFSQNATIQKEDTLAIQIFSFVAEFSVPLLIFLFAVLLLIFSLGRHTRQMRNTVAGSRVPGRGAPISALLSILSFLILYFSHCMIKVFLSSLKFHIRRFIFLFFILVIGIYPSGHSLILILGNPKLKQNAKKFLLHSKCCQ [TAS2R1] |  |  | plasma membrane surface immunostaining intensity (GPCR class: Taste): 212 ± 85
MSEEEFYLFKNISSVGPWDGPQYHIAPVWAFYLQAAFMGTVFLIGFPLNAMVLVATLRYKKLRQPLNYILVNVSFGGFLLCIFSVFPVFVASCNGYFVFGRHVCALEGFLGTVAGLVTGWSLAFLAFERYIVICKPFGNFRFSSKHALTVVLATWTIGIGVSIPPFFGWSRFIPEGLQCSCGPDWYTVGTKYRSESYTWFLFIFCFIVPLSLICFSYTQLLRALKAVAAQQQESATTQKAEREVSRMVVVMVGSFCVCYVPYAAFAMYMVNNRNHGLDLRLVTIPSFFSKSACIYNPIIYCFMNKQFQACIMKMVCGKAMTDESDTCSSQKTEVSTVSSTQVGPN [OPN1SW] | 2770 ± 310 |  | 
MWQKNQTSLADFILEGLFDDSLTHLFLFSLTMVVFLIAVSGNTLTILLICIDPQLHTPMYFLLSQLSLMDLMHVSTIILKMATNYLSGKKSISFVGCATQHFLYLCLGGAECFLLAVMSYDRYVAICHPLRYAVLMNKKVGLMMAVMSWLGASVNSLIHMAILMHFPFCGPRKVYHFYCEFPAVVKLVCGDITVYETTVYISSILLLLPIFLISTSYVFILQSVIQMRSSGSKRNAFATCGSHLTVVSLWFGACIFSYMRPRSQCTLLQNKVGSVFYSIITPTLNSLIYTLRNKDVAKALRRVLRRDVITQCIQRLQLWLPRV [OR2AE1] |  | 159 ± 49 | 
MSGTKLEDSPPCRNWSSASELNETQEPFLNPTDYDDEEFLRYLWREYLHPKEYEWVLIAGYIIVFVVALIGNVLVCVAVWKNHHMRTVTNYFIVNLSLADVLVTITCLPATLVVDITETWFFGQSLCKVIPYLQTVSVSVSVLTLSCIALDRWYAICHPLMFKSTAKRARNSIVIIWIVSCIIMIPQAIVMECSTVFPGLANKTTLFTVCDERWGGEIYPKMYHICFFLVTYMAPLCLMVLAYLQIFRKLWCRQIPGTSSVVQRKWKPLQPVSQPRGPGQPTKSRMSAVAAEIKQIRARRKTARMLMIVLLVFAICYLPISILNVLKRVFGMFAHTEDRETVYAWFTFSHWLVYANSAANPIIYNFLSGKFREEFKAAFSCCCLGVHHRQEDRLTRGRTSTESRKSLTTQISNFDNISKLSEQVVLTSISTLPAANGAGPLQNW [HCRTR2] | 5620 ± 490 |  | 
MAVQGSQRRLLGSLNSTPTAIPQLGLAANQTGARCLEVSISDGLFLSLGLVSLVENALVVATIAKNRNLHSPMYCFICCLALSDLLVSGSNVLETAVILLLEAGALVARAAVLQQLDNVIDVITCSSMLSSLCFLGAIAVDRYISIFYALRYHSIVTLPRARRAVAAIWVASVVFSTLFIAYYDHVAVLLCLVVFFLAMLVLMAVLYVHMLARACQHAQGIARLHKRQRPVHQGFGLKGAVTLTILLGIFFLCWGPFFLHLTLIVLCPEHPTCGCIFKNFNLFLALIICNAIIDPLIYAFHSQELRRTLKEVLTCSW [MC1R] | 299 ± 43 |  | 

— the supplement of paper PMC12458215
